Data on one variant can be found in IntAct's records for PubMed 15485833.

The chains are these.
B1: Actin nucleation-promoting factor WASL (Homo sapiens), O00401 (parent)
chain: MSSVQQQPPPPRRVTNVGSLLLTPQENESLFTFLGKKCVTMSSAVVQLYAADRNCMWSKKCSGVACLVKDNPQRSYFLRIFDIKDGKLLWEQELYNNFVYNSPRGYFHTFAGDTCQVALNFANEEEAKKFRKAVTDLLGRRQRKSEKRRDPPNGPNLPMATVDIKNPEITTNRFYGPQVNNISHTKEKKKGKAKKKRLTKADIGTPSNFQHIGHVGWDPNTGFDLNNLDPELKNLFDMCGISEAQLKDRETSKVIYDFIEKTGGVEAVKNELRRQAPPPPPPSRGGPPPPPPPPHNSGPPPPPARGRGAPPPPPSRAPTAAPPPPPPSRPSVAVPPPPPNRMYPPPPPALPSSAPSGPPPPPPSVLGVGPVAPPPPPPPPPPPGPPPPPGLPSDGDHQVPTTAGNKAALLDQIREGAQLKKVEQNSRPVSCSGRDALLDQIRQGIQLKSVADGQESTPPTPAPTSGIVGALMEVMQKRSKAIHSSDEDEDEDDEEDFEDDDEWED

In the first experiment the parent is B1. The following applies: with arpc1_yeast ARC40, P38328.
Sequence of arpc1_yeast ARC40, P38328 (P38328 whole entry): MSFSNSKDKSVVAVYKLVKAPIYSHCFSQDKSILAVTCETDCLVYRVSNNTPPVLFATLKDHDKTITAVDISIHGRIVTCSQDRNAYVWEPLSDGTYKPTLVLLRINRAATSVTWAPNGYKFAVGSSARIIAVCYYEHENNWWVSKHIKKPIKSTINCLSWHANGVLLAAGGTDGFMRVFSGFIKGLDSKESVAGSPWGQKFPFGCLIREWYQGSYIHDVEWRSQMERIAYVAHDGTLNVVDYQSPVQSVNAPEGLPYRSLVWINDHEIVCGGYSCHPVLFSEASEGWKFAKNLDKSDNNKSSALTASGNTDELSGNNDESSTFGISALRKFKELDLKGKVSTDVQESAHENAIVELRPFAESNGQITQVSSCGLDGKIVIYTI
For the variant W503A, the “effect of a mutation on the interaction” value is “decreasing interaction”.

Another experiment covers variants of B1. Particulars: with arp3_yeast ARP3, P47117.
Sequence of arp3_yeast ARP3, P47117 (P47117 whole entry): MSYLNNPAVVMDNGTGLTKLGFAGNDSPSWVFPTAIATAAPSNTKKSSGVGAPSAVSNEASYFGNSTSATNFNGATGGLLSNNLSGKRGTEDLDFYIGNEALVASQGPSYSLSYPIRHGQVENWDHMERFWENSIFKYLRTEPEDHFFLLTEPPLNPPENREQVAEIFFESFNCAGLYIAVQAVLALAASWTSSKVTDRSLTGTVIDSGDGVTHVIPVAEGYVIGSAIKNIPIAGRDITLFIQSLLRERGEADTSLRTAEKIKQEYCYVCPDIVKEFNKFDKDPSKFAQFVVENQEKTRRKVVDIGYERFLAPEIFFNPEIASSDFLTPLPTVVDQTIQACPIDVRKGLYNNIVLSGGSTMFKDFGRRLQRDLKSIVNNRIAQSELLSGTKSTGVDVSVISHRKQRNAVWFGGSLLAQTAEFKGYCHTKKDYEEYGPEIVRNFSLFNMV
Regarding W503A, the “effect of a mutation on the interaction” value is “decreasing interaction”.

In the next experiment the parent is B1. Particulars: with arp2_yeast ARP2, P32381.
Sequence of arp2_yeast ARP2, P32381 (P32381 whole entry): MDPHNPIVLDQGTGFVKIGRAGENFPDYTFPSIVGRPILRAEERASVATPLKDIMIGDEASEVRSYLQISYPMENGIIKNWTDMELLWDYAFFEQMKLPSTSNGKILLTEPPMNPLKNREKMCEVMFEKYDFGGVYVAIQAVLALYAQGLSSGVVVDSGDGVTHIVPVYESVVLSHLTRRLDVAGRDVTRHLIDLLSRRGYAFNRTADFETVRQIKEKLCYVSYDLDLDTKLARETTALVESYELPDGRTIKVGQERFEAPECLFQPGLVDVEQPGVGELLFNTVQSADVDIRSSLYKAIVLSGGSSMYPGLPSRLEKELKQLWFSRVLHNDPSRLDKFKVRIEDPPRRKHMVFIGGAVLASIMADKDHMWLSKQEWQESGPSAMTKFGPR
For the variant W503A, the “effect of a mutation on the interaction” value is reported as “decreasing interaction”.
